B1: 100-base RNA (ssRNA)
RNA: AGCCUGAAUCUCAGAUUCCACCACAAAGACCUCAGCGGGAUCAAAGAGUGCGAGAACAACGAAUAAAUAUUCCUCCCCAAAGGGGACCCAGACCAAUCCG
B2: 20-base RNA (ssRNA)
RNA: AGAUUCCACCACAAAGACCC

Tests used:
Assay in all cases: EMSA
[1] = target: G3BP1 dIDR3 (dRGG) (human, UniProt Q13283 1-410, del411-466)
[2] = target: G3BP1 dRBD (human, UniProt Q13283 1-334, del335-466)
[3] = target: G3BP1 WT (human, UniProt Q13283 1-466)
[4] = target: G3BP1 S149A (human, UniProt Q13283 1-466, S149A)
Sequence of G3BP1 S149A (Q13283 whole entry S149A): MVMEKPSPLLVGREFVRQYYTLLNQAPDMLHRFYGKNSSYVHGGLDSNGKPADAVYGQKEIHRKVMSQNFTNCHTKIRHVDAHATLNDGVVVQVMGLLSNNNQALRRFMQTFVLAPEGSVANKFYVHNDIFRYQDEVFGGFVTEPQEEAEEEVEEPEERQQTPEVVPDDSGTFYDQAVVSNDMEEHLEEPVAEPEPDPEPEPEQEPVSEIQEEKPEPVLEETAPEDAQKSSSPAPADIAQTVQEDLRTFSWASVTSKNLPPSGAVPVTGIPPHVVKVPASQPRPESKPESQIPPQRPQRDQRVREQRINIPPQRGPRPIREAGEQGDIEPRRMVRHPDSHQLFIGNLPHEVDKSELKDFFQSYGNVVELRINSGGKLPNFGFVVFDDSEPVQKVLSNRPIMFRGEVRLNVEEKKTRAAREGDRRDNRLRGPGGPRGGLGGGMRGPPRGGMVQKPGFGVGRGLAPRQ

Sequence of G3BP1 dRBD (Q13283 1-334, stated change not applied): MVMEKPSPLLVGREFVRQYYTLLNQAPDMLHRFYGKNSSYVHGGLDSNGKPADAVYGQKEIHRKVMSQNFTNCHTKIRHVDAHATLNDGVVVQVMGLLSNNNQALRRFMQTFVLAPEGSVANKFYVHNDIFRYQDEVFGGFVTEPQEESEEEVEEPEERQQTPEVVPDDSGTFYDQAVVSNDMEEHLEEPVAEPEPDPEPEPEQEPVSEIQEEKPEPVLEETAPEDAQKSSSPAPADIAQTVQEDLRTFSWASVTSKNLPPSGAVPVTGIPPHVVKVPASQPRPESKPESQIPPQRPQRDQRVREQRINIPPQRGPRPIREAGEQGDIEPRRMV
Sequence of G3BP1 WT (Q13283 whole entry): as the sequence (Q13283 whole entry S149A) above, with A149S counted along it
Sequence of G3BP1 dIDR3 (dRGG) (Q13283 1-410, stated change not applied): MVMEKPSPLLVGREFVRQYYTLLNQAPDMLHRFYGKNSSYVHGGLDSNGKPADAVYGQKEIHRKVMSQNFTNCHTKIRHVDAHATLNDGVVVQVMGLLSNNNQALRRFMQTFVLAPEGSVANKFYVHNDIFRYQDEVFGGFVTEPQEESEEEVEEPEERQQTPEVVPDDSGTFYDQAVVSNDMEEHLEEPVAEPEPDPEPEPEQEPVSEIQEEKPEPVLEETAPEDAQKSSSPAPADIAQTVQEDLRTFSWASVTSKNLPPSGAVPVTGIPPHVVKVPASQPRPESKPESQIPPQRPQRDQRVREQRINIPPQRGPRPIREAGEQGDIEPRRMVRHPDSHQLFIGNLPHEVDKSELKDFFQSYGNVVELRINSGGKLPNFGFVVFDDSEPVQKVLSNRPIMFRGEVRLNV

| Binder | binding result [1] | binding result [2] | binding result [3] | binding result [4] |
| --- | --- | --- | --- | --- |
| B1 | no binding | no binding |  |  |
| B2 |  |  | binds | binds |

Reference: publication PMC7448383
